Source: patent US20230357425A1 (HARBOUR BIOMED SHANGHAI, published 2023)

target: T1, Cynomolgus monkey CD73 on HEK293-cynoCD73 stable cell line (cynomolgus monkey); assay: flow cytometry on HEK293-cynoCD73 stable cells
T1 construct: whole, on cells
Experimental: Binding of antibodies to hCD73 and cynoCD73 expression in stable cell line was characterized by Flow cytometry. The cells were incubated with various concentration antibodies (the top concentration was 50 nM, 8 points, dilution factor 3), then incubate for 1 h at 4° C. Wash two times by PBS, then add the secondary antibody Goat anti-human(H+L) (Thermo fisher, A11013), incubate for 30 min at 4° C. And the fluorescence intensity was read by FACS Machine (BD FACS CantoII). A plot of median fluorescence intensity and the binding EC50 were fitted and calculated by GraphPad Prism 5.

Binder	EC50 [nM]
Tab1 (antibody, human IgG1, lambda, V domains shown, also called PR002078; MEDI9447(TAB1)) VH: EVQLLESGGGLVQPGGSLRLSCAASGFTFSSYAYSWVRQAPGKGLEWVSAISGSGGRTYYADSVKGRFTISRDNSKNTLYLQMNSLRAEDTAVYYCARLGYGRVDEWGRGTLVTVSS VL: QSVLTQPPSASGTPGQRVTISCSGSLSNIGRNPVNWYQQLPGTAPKLLIYLDNLRLSGVPDRFSGSKSGTSASLAISGLQSEDEADYYCATWDDSHPGWTFGGGTKLTVLG	0.623
PR000506 (antibody, human IgG1, kappa, L234A L235A, V domains shown, Recombinant antibody from hybridoma clone 38H6; also called 38H6E5 (clone name)) VH: QVQLVESGGGVAQPGRSLSLSCAASGFTFSDYGMHWVRQAPGKGLEWVALIWYDGSFEYYADSVKGRFSISRDNSKNTLYLQMNSLRAEDTAVYYCVRDGQWGSRLDYWGQGTLVTVSS VL: KIVMTQSPATLSLSPGERATLSCRASQSVSRYLAWYQQKPGQAPRLLIYDASNRATGIPARFSGSGSGTDFTLTISSLEPEDFAVYYCQQRSNWIFTFGPGTKVDIKR	0.323
PR000844 (antibody, human IgG1, kappa, L234A L235A, V domains shown, PTM-removal variant of PR000506 (heavy chain D54E, G100A)) VH: QVQLVESGGGVAQPGRSLSLSCAASGFTFSDYGMHWVRQAPGKGLEWVALIWYEGSFEYYADSVKGRFSISRDNSKNTLYLQMNSLRAEDTAVYYCVRDAQWGSRLDYWGQGTLVTVSS VL: KIVMTQSPATLSLSPGERATLSCRASQSVSRYLAWYQQKPGQAPRLLIYDASNRATGIPARFSGSGSGTDFTLTISSLEPEDFAVYYCQQRSNWIFTFGPGTKVDIKR	0.475
PR000849 (antibody, human IgG1, kappa, L234A L235A, V domains shown, PTM-removal variant of PR000851 (heavy chain G55A, D99E)) VH: QVQLVESGGGVAQPGRSLSLSCAASGFTFSDYGMHWVRQAPGKGLEWVALIWYDASFEYYADSVKGRFSISRDNSKNTLYLQMNSLRAEDTAVYYCVREGQWGSRLDYWGQGTLVTVSS VL: EIVLTQSPATLSLSPGERATLSCRASQSVSRYLAWYQQKPGQAPRLLIYDASNRATGIPARFSGSGSGTDFTLTISSLEPEDFAVYYCQQRSNWIFTFGPGTKVDIKR	0.515
